Source: article PMC4445065, “SOXE transcription factors form selective dimers on non-compact DNA motifs through multifaceted interactions between dimerization and high-mobility group domains”

Key:
SOX9-NHMG [1] = target: T1, SOX9-NHMG (UniProt Q04887 1-181); experiment: EMSA; homodimer, cooperativity factor ~100 (about 10-fold diminished); EMSA: 10 mM Tris-HCl pH 8.0, 0.1 mg/ml BSA, 50 uM ZnCl2, 100 mM KCl, 10% glycerol, 0.1% Igepal CA630, 2 mM beta-mercaptoethanol, 50 nM DNA, 4 h at 4 C; CD: 50 mM phosphate pH 8.0, 4 h at 4 C; conditions: protein: recombinant; tags: His6 or His-MBP fusion, removed by TEV; chain copies: 2; label: Cy5 forward strand
T1 sequence (Q04887 1-181): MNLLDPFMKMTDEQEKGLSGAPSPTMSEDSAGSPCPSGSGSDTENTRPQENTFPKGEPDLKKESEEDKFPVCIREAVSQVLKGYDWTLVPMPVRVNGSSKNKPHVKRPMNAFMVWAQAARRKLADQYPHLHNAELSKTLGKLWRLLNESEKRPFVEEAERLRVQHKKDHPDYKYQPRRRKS

SOX9-NHMG [2] = target: T1, SOX9-NHMG; experiment: EMSA; highly cooperative homodimer; EMSA: 10 mM Tris-HCl pH 8.0, 0.1 mg/ml BSA, 50 uM ZnCl2, 100 mM KCl, 10% glycerol, 0.1% Igepal CA630, 2 mM beta-mercaptoethanol, 50 nM DNA, 4 h at 4 C; CD: 50 mM phosphate pH 8.0, 4 h at 4 C; conditions: protein: recombinant; tags: His6 or His-MBP fusion, removed by TEV; chain copies: 2; label: Cy5 forward strand
SOX10-DHMG = SOX10-DHMG (UniProt Q04888 61-180); experiment: EMSA; homodimer, as cooperative as SOX9-NHMG; EMSA: 10 mM Tris-HCl pH 8.0, 0.1 mg/ml BSA, 50 uM ZnCl2, 100 mM KCl, 10% glycerol, 0.1% Igepal CA630, 2 mM beta-mercaptoethanol, 50 nM DNA, 4 h at 4 C; CD: 50 mM phosphate pH 8.0, 4 h at 4 C; conditions: protein: recombinant; tags: His6 or His-MBP fusion, removed by TEV; chain copies: 2; label: Cy5 forward strand
SOX10-DHMG, sequence (Q04888 61-180): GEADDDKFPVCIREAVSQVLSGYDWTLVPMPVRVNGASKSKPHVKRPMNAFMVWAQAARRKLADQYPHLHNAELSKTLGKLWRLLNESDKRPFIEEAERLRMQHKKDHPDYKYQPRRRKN

SOX8-NHMG = SOX8-NHMG (UniProt Q04886 1-175); experiment: as above; conditions: protein: recombinant; tags: His6 or His-MBP fusion, removed by TEV; chain copies: 2; label: Cy5 forward strand
SOX8-NHMG, sequence (Q04886 1-175): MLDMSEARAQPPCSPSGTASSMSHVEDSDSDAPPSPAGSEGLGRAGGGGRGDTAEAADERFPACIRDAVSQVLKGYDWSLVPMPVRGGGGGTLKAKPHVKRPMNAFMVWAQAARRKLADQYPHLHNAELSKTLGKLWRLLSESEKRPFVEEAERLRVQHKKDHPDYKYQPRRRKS

SOX9-NHMG;SOX8-HMG = SOX9-NHMG;SOX8-HMG (;, UniProt Q04887;Q04886 1-181;97-175, |); experiment: EMSA; heterodimer more prominent than SOX9-NHMG homodimer; EMSA: 10 mM Tris-HCl pH 8.0, 0.1 mg/ml BSA, 50 uM ZnCl2, 100 mM KCl, 10% glycerol, 0.1% Igepal CA630, 2 mM beta-mercaptoethanol, 50 nM DNA, 4 h at 4 C; CD: 50 mM phosphate pH 8.0, 4 h at 4 C; conditions: protein: recombinant;recombinant; tags: His6 or His-MBP fusion, removed by TEV;; copies: 1;1; label: Cy5 forward strand
SOX9-NHMG;SOX8-HMG, sequence (Q04887 1-181, chain 1 of 2): as the sequence (Q04887 1-181) above
SOX9-NHMG;SOX8-HMG, sequence (Q04887 103-181 N147S, chain 2 of 2): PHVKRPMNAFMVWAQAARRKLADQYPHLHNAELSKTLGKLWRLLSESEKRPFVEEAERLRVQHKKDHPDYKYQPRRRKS

SOX9-NHMG;SOX10-HMG = SOX9-NHMG;SOX10-HMG (;, UniProt Q04887;Q04888 1-181;102-180, |); experiment: as above; conditions: protein: recombinant;recombinant; tags: His6 or His-MBP fusion, removed by TEV;N-terminal His6 (Methods, possibly only this construct); copies: 1;1; label: Cy5 forward strand
SOX9-NHMG;SOX10-HMG, sequence (Q04887 1-181, chain 1 of 2): as the sequence (Q04887 1-181) above
SOX9-NHMG;SOX10-HMG, sequence (Q04887 other isoform, or with tags, fused parts or gaps |, chain 2 of 2): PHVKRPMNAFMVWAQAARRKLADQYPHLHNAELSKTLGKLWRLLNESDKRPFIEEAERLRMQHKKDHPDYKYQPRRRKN

SOX9-NHMG [3] = target: T1, SOX9-NHMG; experiment: EMSA; highly cooperative homodimer; cooperativity factor denoted infinite; EMSA: 10 mM Tris-HCl pH 8.0, 0.1 mg/ml BSA, 50 uM ZnCl2, 100 mM KCl, 10% glycerol, 0.1% Igepal CA630, 2 mM beta-mercaptoethanol, 50 nM DNA, 4 h at 4 C; CD: 50 mM phosphate pH 8.0, 4 h at 4 C; conditions: protein: recombinant; tags: His6 or His-MBP fusion, removed by TEV; chain copies: 2; label: Cy5 forward strand
SOX9-NHMG;SOX9-HMG = SOX9-NHMG;SOX9-HMG (;, UniProt Q04887;Q04887 1-181;103-181, |); experiment: EMSA; mixed dimer more prominent than SOX9-NHMG homodimer; EMSA: 10 mM Tris-HCl pH 8.0, 0.1 mg/ml BSA, 50 uM ZnCl2, 100 mM KCl, 10% glycerol, 0.1% Igepal CA630, 2 mM beta-mercaptoethanol, 50 nM DNA, 4 h at 4 C; CD: 50 mM phosphate pH 8.0, 4 h at 4 C; conditions: protein: recombinant;recombinant; tags: His6 or His-MBP fusion, removed by TEV;; copies: 1;1; label: Cy5 forward strand
SOX9-NHMG;SOX9-HMG, sequence (Q04887 1-181, chain 1 of 2): as the sequence (Q04887 1-181) above
SOX9-NHMG;SOX9-HMG, sequence (Q04887 103-181, chain 2 of 2): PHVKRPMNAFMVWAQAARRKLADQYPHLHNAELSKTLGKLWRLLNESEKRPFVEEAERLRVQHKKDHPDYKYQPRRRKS

SOX10-DHMG;SOX8-HMG = SOX10-DHMG;SOX8-HMG (;, UniProt Q04888;Q04886 61-180;97-175, |); experiment: EMSA; mixed dimer with single DIM; EMSA: 10 mM Tris-HCl pH 8.0, 0.1 mg/ml BSA, 50 uM ZnCl2, 100 mM KCl, 10% glycerol, 0.1% Igepal CA630, 2 mM beta-mercaptoethanol, 50 nM DNA, 4 h at 4 C; CD: 50 mM phosphate pH 8.0, 4 h at 4 C; conditions: protein: recombinant;recombinant; tags: His6 or His-MBP fusion, removed by TEV;; copies: 1;1; label: Cy5 forward strand
SOX10-DHMG;SOX8-HMG, sequence (Q04888 61-180, chain 1 of 2): as the sequence (Q04888 61-180) above
SOX10-DHMG;SOX8-HMG, sequence (Q04888 other isoform, or with tags, fused parts or gaps |, chain 2 of 2): as the sequence (Q04887 103-181 N147S, chain 2 of 2) above

SOX8-NHMG;SOX10-HMG = SOX8-NHMG;SOX10-HMG (;, UniProt Q04886;Q04888 1-175;102-180, |); experiment: as above; conditions: protein: recombinant;recombinant; tags: His6 or His-MBP fusion, removed by TEV;N-terminal His6 (Methods, possibly only this construct); copies: 1;1; label: Cy5 forward strand
SOX8-NHMG;SOX10-HMG, sequence (Q04886 1-175, chain 1 of 2): as the sequence (Q04886 1-175) above

SOX8-NHMG;SOX8-HMG = SOX8-NHMG;SOX8-HMG (;, UniProt Q04886;Q04886 1-175;97-175, |); experiment: as above; conditions: protein: recombinant;recombinant; tags: His6 or His-MBP fusion, removed by TEV;; copies: 1;1; label: Cy5 forward strand
SOX8-NHMG;SOX8-HMG, sequence (Q04886 1-175, chain 1 of 2): as the sequence (Q04886 1-175) above
SOX8-NHMG;SOX8-HMG, sequence (Q04886 97-175, chain 2 of 2): as the sequence (Q04887 103-181 N147S, chain 2 of 2) above

SOX10-DHMG;SOX9-HMG = SOX10-DHMG;SOX9-HMG (;, UniProt Q04888;Q04887 61-180;103-181, |); experiment: as above; conditions: protein: recombinant;recombinant; tags: His6 or His-MBP fusion, removed by TEV;; copies: 1;1; label: Cy5 forward strand
SOX10-DHMG;SOX9-HMG, sequence (Q04888 61-180, chain 1 of 2): as the sequence (Q04888 61-180) above
SOX10-DHMG;SOX9-HMG, sequence (Q04888 other isoform, or with tags, fused parts or gaps |, chain 2 of 2): as the sequence (Q04887 103-181, chain 2 of 2) above

SOX10-DHMG;SOX10-HMG = SOX10-DHMG;SOX10-HMG (;, UniProt Q04888;Q04888 61-180;102-180, |); experiment: as above; conditions: protein: recombinant;recombinant; tags: His6 or His-MBP fusion, removed by TEV;N-terminal His6 (Methods, possibly only this construct); copies: 1;1; label: Cy5 forward strand
SOX10-DHMG;SOX10-HMG, sequence (Q04888 61-180, chain 1 of 2): as the sequence (Q04888 61-180) above

SOX8-NHMG;SOX9-HMG = SOX8-NHMG;SOX9-HMG (;, UniProt Q04886;Q04887 1-175;103-181, |); experiment: as above; conditions: protein: recombinant;recombinant; tags: His6 or His-MBP fusion, removed by TEV;; copies: 1;1; label: Cy5 forward strand
SOX8-NHMG;SOX9-HMG, sequence (Q04886 1-175, chain 1 of 2): as the sequence (Q04886 1-175) above
SOX8-NHMG;SOX9-HMG, sequence (Q04886 97-175 S141N, chain 2 of 2): as the sequence (Q04887 103-181, chain 2 of 2) above

SOX9-NHMG;SOX10-DHMG = SOX9-NHMG;SOX10-DHMG (;, UniProt Q04887;Q04888 1-181;61-180, |); experiment: EMSA; heterodimer band; EMSA: 10 mM Tris-HCl pH 8.0, 0.1 mg/ml BSA, 50 uM ZnCl2, 100 mM KCl, 10% glycerol, 0.1% Igepal CA630, 2 mM beta-mercaptoethanol, 50 nM DNA, 4 h at 4 C; CD: 50 mM phosphate pH 8.0, 4 h at 4 C; conditions: protein: recombinant;recombinant, tags: His6 or His-MBP fusion, removed by TEV;His6 or His-MBP fusion, copies: 1;1, label: Cy5 forward strand
SOX9-NHMG;SOX10-DHMG, sequence (Q04887 1-181, chain 1 of 2): as the sequence (Q04887 1-181) above
SOX9-NHMG;SOX10-DHMG, sequence (Q04887 other isoform, or with tags, fused parts or gaps |, chain 2 of 2): as the sequence (Q04888 61-180) above

SOX8-NHMG;SOX10-DHMG = SOX8-NHMG;SOX10-DHMG (;, UniProt Q04886;Q04888 1-175;61-180, |); experiment: as above; conditions: protein: recombinant;recombinant, tags: His6 or His-MBP fusion, removed by TEV;His6 or His-MBP fusion, copies: 1;1, label: Cy5 forward strand
SOX8-NHMG;SOX10-DHMG, sequence (Q04886 1-175, chain 1 of 2): as the sequence (Q04886 1-175) above
SOX8-NHMG;SOX10-DHMG, sequence (Q04888 61-180, chain 2 of 2): as the sequence (Q04888 61-180) above

SOX9-DHMG;SOX8-NHMG = SOX9-DHMG;SOX8-NHMG (;, UniProt Q04887;Q04886 60-181;1-175, |); experiment: as above; conditions: protein: recombinant;recombinant, tags: His6 or His-MBP fusion, removed by TEV;His6 or His-MBP fusion, copies: 1;1, label: Cy5 forward strand
SOX9-DHMG;SOX8-NHMG, sequence (Q04887 60-181, chain 1 of 2): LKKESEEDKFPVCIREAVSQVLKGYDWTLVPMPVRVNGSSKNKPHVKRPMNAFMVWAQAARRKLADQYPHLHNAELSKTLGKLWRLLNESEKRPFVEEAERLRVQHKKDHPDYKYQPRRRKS
SOX9-DHMG;SOX8-NHMG, sequence (Q04886 1-175, chain 2 of 2): as the sequence (Q04886 1-175) above

Measured: binding result

B1: 1 bp spacer SOX dimer probe (dsDNA)
DNA 1: CCGCCGAACAATGTCATTGTTGCCGCC
DNA 2: GGCGGCAACAATGACATTGTTCGGCGG
binds: SOX9-NHMG [1]

B2: 3 bp spacer SOX dimer probe (dsDNA)
DNA 1: CGCCGAAAACAAAGGACCTTTGTTTTGCCG
DNA 2: CGGCAAAACAAAGGTCCTTTGTTTTCGGCG
binds: SOX9-NHMG [2]

B3: 4 bp spacer SOX dimer probe (dsDNA)
DNA 1: GCCGAAAACAAAGGAACCTTTGTTTTGCCG
DNA 2: CGGCAAAACAAAGGTTCCTTTGTTTTCGGC
binds: SOX10-DHMG | SOX8-NHMG | SOX9-NHMG;SOX8-HMG | SOX9-NHMG;SOX10-HMG | SOX9-NHMG [3] | SOX9-NHMG;SOX9-HMG | SOX10-DHMG;SOX8-HMG | SOX8-NHMG;SOX10-HMG | SOX8-NHMG;SOX8-HMG | SOX10-DHMG;SOX9-HMG | SOX10-DHMG;SOX10-HMG | SOX8-NHMG;SOX9-HMG | SOX9-NHMG;SOX10-DHMG | SOX8-NHMG;SOX10-DHMG | SOX9-DHMG;SOX8-NHMG

B4: 2 bp spacer SOX dimer probe (dsDNA)
DNA 1: CGCCGAAAACAAAGGCCTTTGTTTTGCCGC
DNA 2: GCGGCAAAACAAAGGCCTTTGTTTTCGGCG
binds: SOX9-NHMG [1]

B5: 5 bp spacer SOX dimer probe (dsDNA)
DNA 1: GCCGAAAACAAAGGATACCTTTGTTTTGCC
DNA 2: GGCAAAACAAAGGTATCCTTTGTTTTCGGC
binds: SOX9-NHMG [3]

B6: 6 bp spacer SOX dimer probe (dsDNA)
DNA 1: CCGAAAACAAAGGATTACCTTTGTTTTGCC
DNA 2: GGCAAAACAAAGGTAATCCTTTGTTTTCGG
binds: SOX9-NHMG [1]

B7: 0 bp spacer SOX dimer probe (dsDNA)
DNA 1: CCGCCGTAACAATGCATTGTTGCCGCC
DNA 2: GGCGGCAACAATGCATTGTTACGGCGG
binds: SOX9-NHMG [1]
